Data on one molecule can be found in article PMC11566000.

The data set concerns the target T1, SloR (purified native) (UniProt I6L923 1-217).
T1 sequence: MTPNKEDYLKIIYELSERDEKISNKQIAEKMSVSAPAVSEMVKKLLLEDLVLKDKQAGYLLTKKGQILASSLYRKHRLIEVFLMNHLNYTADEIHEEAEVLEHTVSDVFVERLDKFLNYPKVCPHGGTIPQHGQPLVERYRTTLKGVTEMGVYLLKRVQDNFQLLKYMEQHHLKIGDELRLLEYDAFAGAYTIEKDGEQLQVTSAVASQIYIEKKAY
Nature of the data set: BLI. On the technique in general: Biolayer interferometry detects binding as a change in optical thickness at a sensor tip.

B1: mntH.22.SRE3.WT (dsDNA)
DNA 1: CAGTAATTCTTACAAACTCTTT
DNA 2: AAAGAGTTTGTAAGAATTACTG
Consider B1, for which the binding result is given as “no binding”.
